Laboratory results reported in publication PMC7327485 (The EMBO Journal, 2020).

Molecular target: the molecule itself
Assay: absorbance at 350 nm

B1: farnesylated hGBP1 R584‐586A (hGBP1F ^R584‐586A) (natural protein)
chain: MASEIHMTGPMCLIENTNGRLMANPEALKILSAITQPMVVVAIVGLYRTGKSYLMNKLAGKKKGFSLGSTVQSHTKGIWMWCVPHPKKPGHILVLLDTEGLGDVEKGDNQNDSWIFALAVLLSSTFVYNSIGTINQQAMDQLYYVTELTHRIRSKSSPDENENEVEDSADFVSFFPDFVWTLRDFSLDLEADGQPLTPDEYLTYSLKLKKGTSQKDETFNLPRLCIRKFFPKKKCFVFDRPVHRRKLAQLEKLQDEELDPEFVQQVADFCSYIFSNSKTKTLSGGIQVNGPRLESLVLTYVNAISSGDLPCMENAVLALAQIENSAAVQKAIAHYEQQMGQKVQLPTETLQELLDLHRDSEREAIEVFIRSSFKDVDHLFQKELAAQLEKKRDDFCKQNQEASSDRCSALLQVIFSPLEEEVKAGIYSKPGGYRLFVQKLQDLKKKYYEEPRKGIQAEEILQTYLKSKESMTDAILQTDQTLTEKEKEIEVERVKAESAQASAKMLQEMQRKNEQMMEQKERSYQEHLKQLTEKMENDRVQLLKEQERTLALKLQEQEQLLKEGFQKESRIMKNEIQDLQTKMAAAKACTIS
modifications: C-terminal farnesyl moiety (added in vitro with farnesyltransferase and farnesyl pyrophosphate)
Does B1 bind?
Result: binds
